# Experimental data reported in patent US20190093159.
# Legend:
# wt nucleosomes = wt nucleosomes (UniProt P62805)
# [1] = biological target: H4Kac5-containing nucleosomes (H4 K5/8/12/16/20ac) (UniProt P62805)
# nucleosomes with H4K12ac = nucleosomes with H4K12ac (UniProt P62805)
# [2] = system: H3Kac5-containing nucleosomes (H3 K9/14/18/23/27ac)
substance,measurement,setting,value
recombinant full-length human p300,"pulldown with α-H3K18ac antibody (% input), with AcCoA",wt nucleosomes,an increase in pulldown from 0.3% to about 4% input
same,"pulldown with α-H3K18ac antibody (% input), without AcCoA",wt nucleosomes,an increase in pulldown from 0.3% to about 4% input
same,"pulldown with α-H4K5ac antibody (% input), with AcCoA",wt nucleosomes,0.5 to 0.9% input
same,"pulldown with α-H4K5ac antibody (% input), without AcCoA",wt nucleosomes,0.5 to 0.9% input
same,H3 acetylation (α-H3K18ac pulldown) compared to wt,[1],13-fold compared to wt
same,H3 acetylation (α-H3K18ac pulldown),nucleosomes with H4K12ac,This effect was dependent on the exact position of the mark within the tail and was most pronounced for H4K12ac
same,pulldown efficiency with α-H4K5ac antibody (% input),nucleosomes with H4K12ac,4.4% input
same,H4 acetylation (α-H4K5ac pulldown) compared to wt,[2],6-fold increase compared to wt
